Results from US11459586B2, “Methods for increasing efficiency of nuclease-mediated gene editing in stem cells” (President and Fellows of Harvard College, priority 2016, dated 2022).

Legend:
human iPSC [1] = test: mThy1 gene targeting in hiPSC co-transfected with DNA repair or viral inhibitor genes; assay type: cell-based
Experimental: FIGS. 9A-G. Effects of chemical and genetic inhibitors on mThy1 gene targeting in hiPSC. FIG. 9A. Mouse Thy1 gene targeting scheme. Human iPSC were nucleofected with the mThy1 targeting vector system plasmids and analyzed by flow cytometry five days later. The percentages of mThy1^+hThy1^−, mThy1^+hThy1^+, and mThy1^−hThy1^− cells for each sample (gated on live single cells) are graphed. Lines mark the percentage values for the control sample. FIGS. 9B-9D. Human iPSC were nucleofected with: 2 μg mThy1 targeting vector; 0.5 μg Cas9 plasmid; and 1.5 μg of sgRNA plasmids. The sample was divided into multiple wells and cultured in plain media (mTeSR1+10 μM Y-27632 ROCK inhibitor) supplemented with the indicated chemical inhibitor for three days. 20 μM pifithrin α, 200 μM peptide V5 (VPMLK, SEQ ID NO:31), 200 μM peptide control (IPMIK, SEQ ID NO:32), 50 μM TEMPOL, or the indicated concentrations of SCR7 or L755507 were used. FIG. 9B, mThy1^+hThy1^− (bottom portion of each bar in each graph), mThy1^+hThy1^+ (top portion of each bar in each graph). FIG. 9C, mThy1^+hThy1^− (bottom portion of each bar in each graph), mThy1^+hThy1^+ (top portion of each bar in left and center graphs, middle portion of each bar in right graph), and mThy1^−hThy1^− (top portion of each bar in right graph). FIG. 9D, mThy1^+hThy1^− (bottom portion of each bar in each graph), mThy1^+hThy1^+ (center portion of each bar in each graph), and mThy1^−hThy1^− (top portion of each bar in each graph). FIGS. 9E-9F. Human iPSC were nucleofected with: 2 μg mThy1 targeting vector plasmid; 0.5 μg Cas9 plasmid; 1 μg of sgRNA plasmids; and 0.5 μg of plasmid expressing the indicated DNA repair gene or pUC19 control (“Cas9 only”). For FIG. 9E, cultures were treated with 50 μM zVAD and 10 μM SB203580 post transfection. mThy1^+hThy1^− (bottom portion of each bar in each graph), mThy1^+hThy1^+ (top portion of each bar in left and center graphs, middle portion of each bar in right graph), and mThy1^−hThy1^− (top portion of each bar in right graph). FIG. 9F, mThy1^+hThy1^− (bottom portion of each bar in each graph), mThy1^+hThy1^+ (top portion of each bar in left and center graphs, middle portion of each bar in right graph), and mThy1^−hThy1^− (top portion of each bar in right graph). FIG. 9G. Human iPSC were nucleofected with: 2 μg mThy1 targeting vector plasmid; 0.5 μg Cas9 plasmid; and 1.5 μg of sgRNA plasmids. The indicated viral inhibitor genes were cloned into the Cas9 expression vector following an IRES sequence. Cultures were supplemented with 50 μM zVAD post transfection. mThy1^+hThy1^− (bottom portion of each bar in each graph), mThy1^+hThy1^+ (top portion of each bar in left and center graphs, middle portion of each bar in right graph), and mThy1^−hThy1^− (top portion of each bar in right graph). […]

human iPSC [2] = test: gene disruption of hiPSC surface markers with truncated sgRNAs and Trex2 (flow cytometry); assay type: cell-based; settings: 1 μg Trex2 plasmid with Cas9 and sgRNA plasmids, five days
Description: FIG. 12. Gene disruption activity of truncated sgRNAs with and without the Trex2 endonuclease. Full length (20 bp of target complementarity) and Truncated (18-19 bp) sgRNAs were designed to target the coding region of four genes expressed on the surface of hiPSC (top) and cloned into expression plasmids under the constitutive U6 promoter. The Cas9 nuclease and Trex2 endonuclease were also cloned into separate expression plasmids under the constitutive EF1α promoter. Human iPSC were nucleofected with 0.5 μg Cas9 plasmid, 1 μg sgRNA plasmid, and 1 μg of either pUC19 control or Trex2 plasmid. Five days later, cells were stained for expression of the surface markers (Thy 1, CD147, HLA-A2, or HLA-BC) and analyzed by flow cytometry gated on live single cells (open histograms). Shaded histograms indicate staining of an untargeted hiPSC control. The percent of cells that have lost expression of the surface markers is shown.
Pluripotency of iPSC cultures was verified by flow cytometry staining using anti-human Tra-1/60 PE (TRA-1-60, BD) and anti-human Oct3/4 eFluor 660 (EM92, eBioscience) with the fixation buffer sold under the trademark BD CYTOFIX™ and permeabilization buffer sold under the trademark PHOSFLOW™ Perm/Wash buffers. […] Viable cell counts were measured with the cell analyzer sold under the trademark MUSE® Count & Viability Assay kit (EMD Millipore). […]

[3] = 0.5 μg plasmid overexpressing the DNA repair gene, 50 μM zVAD and 10 μM SB203580 post transfection (FIG. 9E)

B1: CtIP: principal HR mediator, overexpressed from plasmid (protein, UniProt Q99708 1-897, looked up)
DNA endonuclease RBBP8: MNISGSSCGSPNSADTSSDFKDLWTKLKECHDREVQGLQVKVTKLKQERILDAQRLEEFFTKNQQLREQQKVLHETIKVLEDRLRAGLCDRCAVTEEHMRKKQQEFENIRQQNLKLITELMNERNTLQEENKKLSEQLQQKIENDQQHQAAELECEEDVIPDSPITAFSFSGVNRLRRKENPHVRYIEQTHTKLEHSVCANEMRKVSKSSTHPQHNPNENEILVADTYDQSQSPMAKAHGTSSYTPDKSSFNLATVVAETLGLGVQEESETQGPMSPLGDELYHCLEGNHKKQPFEESTRNTEDSLRFSDSTSKTPPQEELPTRVSSPVFGATSSIKSGLDLNTSLSPSLLQPGKKKHLKTLPFSNTCISRLEKTRSKSEDSALFTHHSLGSEVNKIIIQSSNKQILINKNISESLGEQNRTEYGKDSNTDKHLEPLKSLGGRTSKRKKTEEESEHEVSCPQASFDKENAFPFPMDNQFSMNGDCVMDKPLDLSDRFSAIQRQEKSQGSETSKNKFRQVTLYEALKTIPKGFSSSRKASDGNCTLPKDSPGEPCSQECIILQPLNKCSPDNKPSLQIKEENAVFKIPLRPRESLETENVLDDIKSAGSHEPIKIQTRSDHGGCELASVLQLNPCRTGKIKSLQNNQDVSFENIQWSIDPGADLSQYKMDVTVIDTKDGSQSKLGGETVDMDCTLVSETVLLKMKKQEQKGEKSSNEERKMNDSLEDMFDRTTHEEYESCLADSFSQAADEEEELSTATKKLHTHGDKQDKVKQKAFVEPYFKGDERETSLQNFPHIEVVRKKEERRKLLGHTCKECEIYYADMPAEEREKKLASCSRHRFRYIPPNTPENFWEVGFPSTQTCMERGYIKEDLDPCPRPKRRQPYNAIFSPKGKEQKT
mThy1 gene targeting efficiency (human iPSC [1]; [3]): did not improve mThy1 gene targeting efficiency

B2: Trex2: endonuclease Trex2, expressed from plasmid (protein, UniProt Q9BQ50 1-236, looked up)
Three prime repair …: MSEAPRAETFVFLDLEATGLPSVEPEIAELSLFAVHRSSLENPEHDESGALVLPRVLDKLTLCMCPERPFTAKASEITGLSSEGLARCRKAGFDGAVVRTLQAFLSRQAGPICLVAHNGFDYDFPLLCAELRRLGARLPRDTVCLDTLPALRGLDRAHSHGTRARGRQGYSLGSLFHRYFRAEPSAAHSAEGDVHTLLLIFLHRAAELLAWADEQARGWAHIEPMYLPPDDPSLEA
gene disruption frequencies (human iPSC [2]): increased gene disruption frequencies
mThy1 gene targeting efficiency (human iPSC [1]; Trex2 plasmid added (FIG. 9F)): reduced mThy1 gene targeting efficiency

B3: MRE11a: principal HR mediator, overexpressed from plasmid (protein, UniProt P49959 2-708, looked up)
Double-strand break repair …: STADALDDENTFKILVATDIHLGFMEKDAVRGNDTFVTLDEILRLAQENEVDFILLGGDLFHENKPSRKTLHTCLELLRKYCMGDRPVQFEILSDQSVNFGFSKFPWVNYQDGNLNISIPVFSIHGNHDDPTGADALCALDILSCAGFVNHFGRSMSVEKIDISPVLLQKGSTKIALYGLGSIPDERLYRMFVNKKVTMLRPKEDENSWFNLFVIHQNRSKHGSTNFIPEQFLDDFIDLVIWGHEHECKIAPTKNEQQLFYISQPGSSVVTSLSPGEAVKKHVGLLRIKGRKMNMHKIPLHTVRQFFMEDIVLANHPDIFNPDNPKVTQAIQSFCLEKIEEMLENAERERLGNSHQPEKPLVRLRVDYSGGFEPFSVLRFSQKFVDRVANPKDIIHFFRHREQKEKTGEEINFGKLITKPSEGTTLRVEDLVKQYFQTAEKNVQLSLLTERGMGEAVQEFVDKEEKDAIEELVKYQLEKTQRFLKERHIDALEDKIDEEVRRFRETRQKNTNEEDDEVREAMTRARALRSQSEESASAFSADDLMSIDLAEQMANDSDDSISAATNKGRGRGRGRRGGRGQNSASRGGSQRGRADTGLETSTRSRNSKTAVSASRNMSIIDAFKSTRQQPSRNVTTKNYSEVIEVDESDVEEDIFPTTSKTDQRWSSTSSSKIMSQSQVSKGVDFESSEDDDDDPFMNTSSLRRNRR
mThy1 gene targeting efficiency (human iPSC [1]; [3]): did not improve mThy1 gene targeting efficiency

B4: Rad51: DNA repair gene overexpressed from plasmid (protein, UniProt Q06609 2-339, looked up)
DNA repair protein RAD51 …: AMQMQLEANADTSVEEESFGPQPISRLEQCGINANDVKKLEEAGFHTVEAVAYAPKKELINIKGISEAKADKILAEAAKLVPMGFTTATEFHQRRSEIIQITTGSKELDKLLQGGIETGSITEMFGEFRTGKTQICHTLAVTCQLPIDRGGGEGKAMYIDTEGTFRPERLLAVAERYGLSGSDVLDNVAYARAFNTDHQTQLLYQASAMMVESRYALLIVDSATALYRTDYSGRGELSARQMHLARFLRMLLRLADEFGVAVVITNQVVAQVDGAAMFAADPKKPIGGNIIAHASTTRLYLRKGRGETRICKIYDSPCLPEAEAMFAINADGVGDAKD
mThy1 gene targeting efficiency (human iPSC [1]; [3]): reduced gene targeting efficiency
